Publication PMC9163516

Target: T1, biotinylated avi-tagged TβRI, P36897
T1 chain: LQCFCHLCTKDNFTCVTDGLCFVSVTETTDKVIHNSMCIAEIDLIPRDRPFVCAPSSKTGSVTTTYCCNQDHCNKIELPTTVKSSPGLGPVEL
Assay: SPR; BIAcore X100; biotinylated avi-tagged TβRI or TβRII captured on neutravidin-coated CM-5 chip (results say streptavidin) at 50-150 RU; TGM constructs injected as 2-fold dilution series in 25 mM Hepes, pH 7.4, 150 mM NaCl, 0.005% P20, 100 μl/min; 1:1 kinetic fit of a single injection series

B1: TGM-D12 (domain or fragment)
chain: DDSGCMPFSDEAATYKYVAKGPKNIEIPAQIDNSGMYPDYTHVKRFCKGLHGEDTTGWFVGICLASQWYYYEGVQECDDRRCSPLPTNDTVSFEYLKATVNPGIIFNITVHPDASGKYPELTYIKRICKNFPTDSNVQGHIIGMCYNAEWQFSSTPTCPAS
modifications: not checked
Kd: 24 nM
koff: 0.0016 s⁻¹
kon: 67000 M⁻¹ s⁻¹

B2: TGM-D2 (domain or fragment)
chain: RCSPLPTNDTVSFEYLKATVNPGIIFNITVHPDASGKYPELTYIKRICKNFPTDSNVQGHIIGMCYNAEWQFSSTPTCPAS
modifications: not checked
Kd: 310 nM
koff: 0.091 s⁻¹
kon: 300000 M⁻¹ s⁻¹
